System: BamHI
Experiment: EMSA
Conditions: value is complex half-life, not a rate; 5 mM CaCl2, no Mg2+; 2 nM BamHI, 100 pM DNA, 6000-fold unlabeled competitor

How did the complex half-life (min (half-life)) turn out when DNA duplex with single BamHI site was run?
The complex half-life (min (half-life)) was 39600.
